# In US20080267976A1:
# Biological target: V158 FcγRIIIa (UniProt P08637)
# Assay: competition AlphaScreen
# Chain of V158 FcγRIIIa (P08637 17-208 F176V): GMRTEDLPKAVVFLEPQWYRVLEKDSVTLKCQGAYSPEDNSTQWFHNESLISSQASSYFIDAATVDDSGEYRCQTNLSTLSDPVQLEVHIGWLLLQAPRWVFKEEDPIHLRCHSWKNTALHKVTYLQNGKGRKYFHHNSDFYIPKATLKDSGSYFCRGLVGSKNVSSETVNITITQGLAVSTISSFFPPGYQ
row,Substance,IC50
1,S239D/I332E/K326T H3.69_V2_L3.71 AC10 IgG(1/2) ELLGG,5.26 nM
2,S239D/I332E/S298A H3.69_V2_L3.71 AC10 IgG(1/2) ELLGG,1.28 nM
3,S239D/I332E/K246H/T260H H3.69_V2_L3.71 AC10 IgG(1/2) ELLGG,5.79 nM
4,S239D/I332E/A330Y/K326E H3.69_V2_L3.71 AC10 IgG(1/2) ELLGG,4 nM
5,S239D/I332E/S324G H3.69_V2_L3.71 AC10 IgG(1/2) ELLGG,8.93 nM
6,S239D/I332E/A330Y H3.69_V2_L3.71 AC10 IgG(1/2) ELLGG,52 nM
7,S239D/I332E/H268E H3.69_V2_L3.71 AC10 IgG(1/2) ELLGG,0.882 nM
8,S239D/I332E H3.69_L3.71 AC10 IgG1,5.1 nM
9,S239D/I332E/K246H/S324I H3.69_V2_L3.71 AC10 IgG(1/2) ELLGG,10.7 nM

# Biological target: V158 FcγRIIIa (UniProt P08637)
# Assay: competition AlphaScreen; second row
row,Substance,IC50
1,S239D/I332E H3.69_L3.71 AC10 IgG1,0.531 nM
